{
  "source": "IntAct's records for PubMed 29892012",
  "parents": {"B1": {"name": "Keratin, type I cuticular Ha8 (Homo sapiens), O76015 (parent)", "chain": "MTSSYSSSSCPLGCTMAPGARNVSVSPIDIGCQPGAEANIAPMCLLANVAHANRVRVGSTPLGRPSLCLPPTCHTACPLPGTCHIPGNIGICGAYGENTLNGHEKETMQFLNDRLANYLEKVRQLEQENAELEATLLERSKCHESTVCPDYQSYFHTIEELQQKILCSKAENARLIVQIDNAKLAADDFRIKLESERSLRQLVEADKCGTQKLLDDATLAKADLEAQQESLKEEQLSLKSNHEQEVKILRSQLGEKLRIELDIEPTIDLNRVLGEMRAQYEAMLETNRQDVEQWFQAQSEGISLQDMSCSEELQCCQSEILELRCTVNALEVERQAQHTLKDCLQNSLCEAEDRFGTELAQMQSLISNVEEQLSEIRADLERQNQEYQVLLDVKTRLENEIATYRNLLESEDCKLPCNPCSTSPSCVTAPCAPRPSCGPCTTCGPTCGASTTGSRF", "partner": "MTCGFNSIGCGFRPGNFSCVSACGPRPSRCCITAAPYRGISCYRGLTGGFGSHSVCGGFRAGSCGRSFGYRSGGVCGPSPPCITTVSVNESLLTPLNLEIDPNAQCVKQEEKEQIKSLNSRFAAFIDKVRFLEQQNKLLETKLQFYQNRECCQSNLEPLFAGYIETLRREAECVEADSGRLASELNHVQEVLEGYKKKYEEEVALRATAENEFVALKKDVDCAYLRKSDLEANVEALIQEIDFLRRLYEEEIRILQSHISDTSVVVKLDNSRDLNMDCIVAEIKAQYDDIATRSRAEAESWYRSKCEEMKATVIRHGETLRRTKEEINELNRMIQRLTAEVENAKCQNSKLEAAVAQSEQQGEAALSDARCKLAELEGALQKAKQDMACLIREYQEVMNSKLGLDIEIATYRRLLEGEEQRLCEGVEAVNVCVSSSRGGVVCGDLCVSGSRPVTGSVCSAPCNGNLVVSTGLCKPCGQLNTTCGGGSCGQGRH"}, "B2": {"name": "Protein VAC14 homolog (Homo sapiens), Q08AM6 (parent)", "chain": "MNPEKDFAPLTPNIVRALNDKLYEKRKVAALEIEKLVREFVAQNNTVQIKHVIQTLSQEFALSQHPHSRKGGLIGLAACSIALGKDSGLYLKELIEPVLTCFNDADSRLRYYACEALYNIVKVARGAVLPHFNVLFDGLSKLAADPDPNVKSGSELLDRLLKDIVTESNKFDLVSFIPLLRERIYSNNQYARQFIISWILVLESVPDINLLDYLPEILDGLFQILGDNGKEIRKMCEVVLGEFLKEIKKNPSSVKFAEMANILVIHCQTTDDLIQLTAMCWMREFIQLAGRVMLPYSSGILTAVLPCLAYDDRKKSIKEVANVCNQSLMKLVTPEDDELDELRPGQRQAEPTPDDALPKQEGTASGGPDGSCDSSFSSGISVFTAASTERAPVTLHLDGIVQVLNCHLSDTAIGMMTRIAVLKWLYHLYIKTPRKMFRHTDSLFPILLQTLSDESDEVILKDLEVLAEIASSPAGQTDDPGPLDGPDLQASHSELQVPTPGRAGLLNTSGTKGLECSPSTPTMNSYFYKFMINLLKRFSSERKLLEVRGPFIIRQLCLLLNAENIFHSMADILLREEDLKFASTMVHALNTILLTSTELFQLRNQLKDLKTLESQNLFCCLYRSWCHNPVTTVSLCFLTQNYRHAYDLIQKFGDLEVTVDFLAEVDKLVQLIECPIFTYLRLQLLDVKNNPYLIKALYGLLMLLPQSSAFQLLSHRLQCVPNPELLQTEDSLKAAPKSQKADSPSIDYAELLQHFEKVQNKHLEVRHQRSGRGDHLDRRVVL", "partner": "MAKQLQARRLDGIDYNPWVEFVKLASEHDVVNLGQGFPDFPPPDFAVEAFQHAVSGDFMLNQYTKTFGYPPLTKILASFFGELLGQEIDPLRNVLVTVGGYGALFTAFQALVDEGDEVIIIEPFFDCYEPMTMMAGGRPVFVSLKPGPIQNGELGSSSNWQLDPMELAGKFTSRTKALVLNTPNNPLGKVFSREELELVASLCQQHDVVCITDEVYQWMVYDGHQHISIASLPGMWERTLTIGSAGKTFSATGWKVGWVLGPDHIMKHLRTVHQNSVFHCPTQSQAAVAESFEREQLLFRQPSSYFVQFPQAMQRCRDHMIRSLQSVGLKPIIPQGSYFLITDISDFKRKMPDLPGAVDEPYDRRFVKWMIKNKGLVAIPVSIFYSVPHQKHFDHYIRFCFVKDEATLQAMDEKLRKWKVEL"}, "B3": {"name": "Protein VAC14 homolog (Homo sapiens), Q08AM6 (parent)", "chain": "B2 chain", "partner": "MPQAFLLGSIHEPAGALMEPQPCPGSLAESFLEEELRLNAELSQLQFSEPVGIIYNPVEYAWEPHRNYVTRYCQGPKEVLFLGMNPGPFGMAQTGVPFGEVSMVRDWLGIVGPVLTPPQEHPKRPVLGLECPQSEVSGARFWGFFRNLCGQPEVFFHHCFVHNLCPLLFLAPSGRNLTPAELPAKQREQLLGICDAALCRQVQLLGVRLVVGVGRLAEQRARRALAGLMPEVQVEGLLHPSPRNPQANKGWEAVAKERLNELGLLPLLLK"}, "B4": {"name": "Enhancer of mRNA-decapping protein 3 (Homo sapiens), Q96F86 (parent)", "chain": "MATDWLGSIVSINCGDSLGVYQGRVSAVDQVSQTISLTRPFHNGVKCLVPEVTFRAGDITELKILEIPGPGDNQHFGDLHQTELGPSGAGCQVGINQNGTGKFVKKPASSSSAPQNIPKRTDVKSQDVAVSPQQQQCSKSYVDRHMESLSQSKSFRRRHNSWSSSSRHPNQATPKKSGLKNGQMKNKDDECFGDDIEEIPDTDFDFEGNLALFDKAAVFEEIDTYERRSGTRSRGIPNERPTRYRHDENILESEPIVYRRIIVPHNVSKEFCTDSGLVVPSISYELHKKLLSVAEKHGLTLERRLEMTGVCASQMALTLLGGPNRLNPKNVHQRPTVALLCGPHVKGAQGISCGRHLANHDVQVILFLPNFVKMLESITNELSLFSKTQGQQVSSLKDLPTSPVDLVINCLDCPENVFLRDQPWYKAAVAWANQNRAPVLSIDPPVHEVEQGIDAKWSLALGLPLPLGEHAGRIYLCDIGIPQQVFQEVGINYHSPFGCKFVIPLHSA", "partner": "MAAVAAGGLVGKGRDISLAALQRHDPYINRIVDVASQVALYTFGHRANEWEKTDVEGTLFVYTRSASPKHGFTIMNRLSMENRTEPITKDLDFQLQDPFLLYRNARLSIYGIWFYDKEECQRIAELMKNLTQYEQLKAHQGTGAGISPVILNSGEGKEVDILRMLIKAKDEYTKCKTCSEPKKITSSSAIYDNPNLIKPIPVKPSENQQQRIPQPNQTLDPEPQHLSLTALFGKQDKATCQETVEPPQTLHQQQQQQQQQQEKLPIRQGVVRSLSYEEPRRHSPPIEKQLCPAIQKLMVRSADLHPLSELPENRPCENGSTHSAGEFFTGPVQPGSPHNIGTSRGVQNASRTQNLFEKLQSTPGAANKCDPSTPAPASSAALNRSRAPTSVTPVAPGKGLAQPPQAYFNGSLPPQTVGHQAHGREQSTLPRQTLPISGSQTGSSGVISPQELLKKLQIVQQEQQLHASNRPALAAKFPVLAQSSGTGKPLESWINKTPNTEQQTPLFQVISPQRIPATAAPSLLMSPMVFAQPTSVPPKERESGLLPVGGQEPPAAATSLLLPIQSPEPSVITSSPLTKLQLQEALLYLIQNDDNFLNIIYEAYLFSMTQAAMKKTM"}, "B5": {"name": "Protein VAC14 homolog (Homo sapiens), Q08AM6 (parent)", "chain": "B2 chain", "partner": "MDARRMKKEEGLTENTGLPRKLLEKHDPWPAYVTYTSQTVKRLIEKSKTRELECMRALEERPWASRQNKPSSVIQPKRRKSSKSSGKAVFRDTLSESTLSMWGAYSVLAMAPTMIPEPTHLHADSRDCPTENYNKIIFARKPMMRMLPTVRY"}, "B6": {"name": "Genetic suppressor element 1 (Homo sapiens), Q14687 (parent)", "chain": "MKGMSHEPKSPSLGMLSTATRTTATVNPLTPSPLNGALVPSGSPATSSALSAQAAPSSSFAAALRKLAKQAEEPRGSSLSSESSPVSSPATNHSSPASTPKRVPMGPIIVPPGGHSVPSTPPVVTIAPTKTVNGVWRSESRQDAGSRSSSGGRERLIVEPPLPQEKAGGPAIPSHLLSTPYPFGLSPSSVVQDSRFPPLNLQRPVHHVVPPSTVTEDYLRSFRPYHTTDDLRMSSLPPLGLDPATAAAYYHPSYLAPHPFPHPAFRMDDSYCLSALRSPFYPIPTPGSLPPLHPSAMHLHLSGVRYPPELSHSSLAALHSERMSGLSAERLQMDEELRREREREREREREREADREREKEREREREKEREQEKEREREKERERELERQREQRAREKELLAAKALEPSFLPVAELHGLRGHATEERGKPSEQLTPTRAEKLKDAGLQAPKPVQHPLHPVPTPHHTVPSLISNHGIFSLPSSSAATALLIQRTNEEEKWLARQRRLRQEKEDRQSQVSEFRQQVLEQHLDMGRPPVPAEAEHRPESTTRPGPNRHEPGGRDPPQHFGGPPPLISPKPQLHAAPTALWNPVSLMDNTLETRRAESHSLHSHPAAFEPSRQAAVPLVKVERVFCPEKAEEGPRKREPAPLDKYQPPPPPPREGGSLEHQPFLPGPGPFLAELEKSTQTILGQQRASLPQAATFGELSGPLKPGSPYRPPVPRAPDPAYIYDEFLQQRRRLVSKLDLEERRRREAQEKGYYYDLDDSYDESDEEEVRAHLRCVAEQPPLKLDTSSEKLEFLQLFGLTTQQQKEELVAQKRRKRRRMLRERSPSPPTIQSKRQTPSPRLALSTRYSPDEMNNSPNFEEKKKFLTIFNLTHISAEKRKDKERLVEMLRAMKQKALSAAVADSLTNSPRDSPAVSLSEPATQQASLDVEKPVGVAASLSDIPKAAEPGKLEQVRPQELSRVQELAPASGEKARLSEAPGGKKSLSMLHYIRGAAPKDIPVPLSHSTNGKSKPWEPFVAEEFAHQFHESVLQSTQKALQKHKGSVAVLSAEQNHKVDTSVHYNIPELQSSSRAPPPQHNGQQEPPTARKGPPTQELDRDSEEEEEEDDEDGEDEEEVPKRKWQGIEAVFEAYQEHIEEQNLERQVLQTQCRRLEARHYSLSLTAEQLSHSVAELRSQKQKMVSERERLQAELDHLRKCLALPAMHWPRGYLKGYPR", "partner": "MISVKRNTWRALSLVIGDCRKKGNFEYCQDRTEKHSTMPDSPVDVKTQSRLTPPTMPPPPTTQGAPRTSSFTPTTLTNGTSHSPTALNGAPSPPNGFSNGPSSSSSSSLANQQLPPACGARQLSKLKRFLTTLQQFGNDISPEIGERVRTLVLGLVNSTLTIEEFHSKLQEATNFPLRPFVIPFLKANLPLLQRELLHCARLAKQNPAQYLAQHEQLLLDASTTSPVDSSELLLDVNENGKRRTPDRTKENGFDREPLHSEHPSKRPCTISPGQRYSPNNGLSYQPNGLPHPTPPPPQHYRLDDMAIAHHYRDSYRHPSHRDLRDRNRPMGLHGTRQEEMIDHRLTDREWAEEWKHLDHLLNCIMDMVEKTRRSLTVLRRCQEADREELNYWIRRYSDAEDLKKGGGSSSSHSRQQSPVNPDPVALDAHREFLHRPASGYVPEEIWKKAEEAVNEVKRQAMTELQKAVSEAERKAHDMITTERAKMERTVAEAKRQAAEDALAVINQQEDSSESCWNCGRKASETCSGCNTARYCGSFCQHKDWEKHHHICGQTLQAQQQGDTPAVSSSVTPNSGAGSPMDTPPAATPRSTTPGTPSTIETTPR"}},
  "data": [
    {"variants_of": "B1", "details": "with krt83_human KRT83, P78385", "values": [
      {"variant": "N270K", "effect of a mutation on the interaction": "with no effect"}
    ]},
    {"variants_of": "B2", "details": "with kat1_human KYAT1, Q16773", "values": [
      {"variant": "A127S", "effect of a mutation on the interaction": "with no effect"}
    ]},
    {"variants_of": "B3", "details": "with smug1_human SMUG1, Q53HV7", "values": [
      {"variant": "A127S", "effect of a mutation on the interaction": "with no effect"}
    ]},
    {"variants_of": "B4", "details": "with dcp1b_human DCP1B", "values": [
      {"variant": "F213L", "effect of a mutation on the interaction": "with no effect"}
    ]},
    {"variants_of": "B5", "details": "with cdrt4_human CDRT4, Q8N9R6", "values": [
      {"variant": "A127S", "effect of a mutation on the interaction": "with no effect"}
    ]},
    {"variants_of": "B6", "details": "with mtg8_human RUNX1T1, Q06455", "values": [
      {"variant": "R503Q", "effect of a mutation on the interaction": "with no effect"}
    ]}
  ]
}
